Data on one molecule can be found in patent publication US20090081234A1 (published 2009).

The target of this experiment is recombinant human TNFα (human, UniProt P01375 77-233). As to the kind of experiment: cell-based or functional assay.
Sequence of recombinant human TNFα (P01375 77-233 limits assumed): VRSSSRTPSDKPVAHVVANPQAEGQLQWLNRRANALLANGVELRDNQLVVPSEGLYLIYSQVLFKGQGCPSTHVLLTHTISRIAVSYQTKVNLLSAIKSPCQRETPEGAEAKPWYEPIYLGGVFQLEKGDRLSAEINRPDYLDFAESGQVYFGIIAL

B1: TNV196 (antibody, V domains shown)
VH: QVQLVESGGGVVQPGRSLRLSCAASGFTFSSYAMHWVRQAPGKGLEWVAFISYDGSNKKSADSVKGRFTVSRDNSKNTLFLQMNSLRAEDTAVFYCARDRGIGAGGNYYYYGMDVWGQGTTVTVSS
VL: EIVLTQSPATLSLSPGERATLSCRASQSVYSYLAWYQQKPGQAPRLLIYDASNRATGIPARFSGSGSGTDFTLTISSLEPEDFAVYYCQQRSNWPPFTFGPGTKVDIK
Consider B1, for which the “neutralizing TNFα bioactivity” value came to 4 fold.
